{
  "source": "patent EP4649952A1",
  "about": "(dated 2025)",
  "binders": {"B1": {"name": "TCR-1 (TCR, V domains shown)", "Valpha": "KVTQAQTEISVVEKEDVTLDCVYETRDTTYYLFWYKQPPSGELVFLIRRNSFDEQNEISGRYSWNFQKSTSSFNFTITASQVVDSAVYFCALSEANQAGTALIFGKGTTLSVSS", "Vbeta": "EAQVTQNPRYLITVTGKKLTVTCSQNMNHEYMSWYRQDPGLGLRQIYYSMNVEVTDKGDVPEGYKVSRKEKRNFPLILESPSPNQTSLYFCASSRKVPPVYGYTFGSGTRLTVV"}, "B2": {"name": "TCR-2 (TCR, V domains shown)", "Valpha": "B1 Valpha", "Vbeta": "B1 Vbeta with K96R, V97W, V100T, Y101D, G102T, Y103Q, T104Y, S107P, V114L"}, "B3": {"name": "TCR-3 (TCR, V domains shown)", "Valpha": "AQKVTQAQTEISVVEKEDVTLDCVYETRDTTYYLFWYKQPPSGELVFLIRRNSFDEQNEISGRYSWNFQKSTSSFNFTITASQVVDSAVYFCALSEAKAAGNKLTFGGGTRVLVKP", "Vbeta": "B1 Vbeta with V97L, V100T"}},
  "biological_target": "T1, KRAS Q61H peptide on HLA-A*01:01 (human)",
  "T1 peptide": "ILDTAGHEEY",
  "assay": "cytokine release",
  "note": "Numbering of substitutions follows the chain as printed.",
  "data": [
    {"binder": "B1", "values": [
      {"measurement": "binding result", "result": "recognises"}
    ]},
    {"binder": "B2", "values": [
      {"measurement": "binding result", "result": "recognises"}
    ]},
    {"binder": "B3", "values": [
      {"measurement": "binding result", "result": "recognises"}
    ]}
  ]
}
